Here are results for 1 substance from article PMC3094505.

Read-outs that look alike come from different tables or passages of the source.

Test [1] addresses Fluoresceinated Nav1.2IQp, peptide of residues 1901-1927 of the Nav1.2 alpha-subunit. Kind of test: fluorescence polarisation.
For test [2] the target is unchanged. Kind of test: fluorescence polarisation. This is another data set of the same source.

As a reminder, the Kd is the free concentration of one partner at which half of the binding sites on the other are occupied at equilibrium, for simple one-to-one binding. A lower Kd goes with higher affinity. For “Paramecium calmodulin N-domain (residues 1-80) (from UniProt P07463 2-81) (domain or fragment)”, the Kd came out at 70.8 µM in test [1] and 1640 nM in test [2].
